Values quoted from earlier work in article PMC9980337.
Several values for one entry are separate records, joined by “and”; a condition that tells them apart may be missing. Equal values may be shown once.

Biological target: IL-18 (Homo sapiens) (UniProt Q14116)
Sequence (Q14116 37-193): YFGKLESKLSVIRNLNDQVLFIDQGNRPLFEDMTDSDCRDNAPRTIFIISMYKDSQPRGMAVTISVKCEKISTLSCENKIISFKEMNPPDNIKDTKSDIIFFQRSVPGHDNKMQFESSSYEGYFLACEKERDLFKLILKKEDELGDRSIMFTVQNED

Sequence of IL-18BP (O95998 31-194): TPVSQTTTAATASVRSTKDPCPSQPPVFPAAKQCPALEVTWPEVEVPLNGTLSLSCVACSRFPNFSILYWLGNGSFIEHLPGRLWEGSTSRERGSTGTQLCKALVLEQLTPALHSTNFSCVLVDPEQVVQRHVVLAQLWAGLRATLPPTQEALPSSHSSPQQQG

In the case of IL-18BP (from UniProt O95998), the Kd is listed as 0.4 nM and 0.05 nM.
